Data from patent US20150050306A1 (University of Washington, published 2015).

B1: FFL_002 (designed binder)
chain: GSLSDVRKDVEKRIDKALEAFKNKMDKEKAAFRKDPPSEERRKDKKKEFREEREQVRKAIRNVLSEALSKINDLPITNDKKKLVSNDVIKKVAEMKKKVELEVADVEKKVTQGSW
notes: Purified on Ni++ resin; no tag is stated for this construct
B2: FFL_001 (designed binder)
chain: GSRSDMRKDAERRFDKFVEAAKNKFDKFKAALRKGDIKEERRKDMKKLARKEAEQARRAVRNRLSELLSKINDMPITNDQKKLMSNDVLKFAAEAEKKIEALAADAEDKFTQGSW
notes: monomeric
B3: FFL_007 (designed binder)
chain: GSLSDIRKDAERRFDKLVEAVKNKLDKMKAALRKEGQQEERMKDLMKFMRKEVEQLRKAMRNFLSEALSKINDMPITNDDKKLISNDLKKYDAIAEKKLEAMKADVERMATQGSWLEHHHHHH
B4: FFL_005 (designed binder)
chain: GSMSDIRKDLEERFDKLVEALKNKVDKMKAAFRKDQFHEERMKDWFKDLRKEVEQMRRAVRNYASEALSKINDLPITNDDKKLASNDVLKLVAEVWKKLEAILADVEAWFTQLEHHHHHH
B5: FFL_004 (designed binder)
chain: GSMSDARKDLEERLDKLLEAAKNKMDKFKAAMRKRGQREERKKDWAKIVRDEFEQFRKAVRNFLSEALSKINDYPITNDDKKLTSNDTKKFAAEVEKKLEAFKADVEEAATQ
notes: as for B1
B6: FFL_006 (designed binder)
chain: GSFSDIRKDAEDRADKAFEAAKNKFDKIKAAIRKDWPSEERAKDLMKKARYEMEQARRAIRNIESEALSKINDLPITNDQKKLASNDIIKEMARLFKKLEALMADIEILVTQ
notes: as for B1

Biological target: T1, Mota Fab
T1 construct: also called Motavizumab Fab; Fab portion of Motavizumab
Test: SPR (Biacore 2000); scaffold coupled to chip, Motavizumab as analyte
Method: All experiments were carried out on a Biacore 2000 (GE Healthcare) at 25° C. with HBSEP (0.01 M HEPES pH 7.4, 0.15 M NaCl, 3 mM EDTA and 0.005% (v/v) Surfactant P20) (GE Healthcare) as running buffer. […] Samples of different protein concentrations were injected in duplicates over this surface at a flow rate of 50-100 μl/min. If necessary, surface regeneration was performed with two 60 seconds injections of 3 M MgCl₂ at a flow rate of 10 μl/min. One flow cell contained anti-human IgG only and its interaction with the analyte was used as reference. Alternatively, another format was used where the epitope where amine-coupled to the sensor chip and Mota Fab was injected with identical flow rates as mentioned above.
To test whether the functional site (mota epitope) was recreated with fidelity, binding affinities were assessed by Surface Plasmon Resonance (SPR) experiments (FIG. 6). […] (See Table 3) The scaffolds were coupled to the biacore chip and Motavizumab was used as analyte.

In order of falling koff:
1. B5  0.000832 s⁻¹
2. B1  0.000734 s⁻¹
3. B4  0.000209 s⁻¹
4. B3  0.000136 s⁻¹
5. B2  0.000119 s⁻¹

In order of rising kon:
1. B5  1.05e+06 M⁻¹ s⁻¹
2. B3  1.45e+06 M⁻¹ s⁻¹
3. B1  1.56e+06 M⁻¹ s⁻¹
4. B4  2.97e+06 M⁻¹ s⁻¹
5. B2  3.99e+06 M⁻¹ s⁻¹

Biological target: T1, Mota Fab
Test: SPR (Biacore 2000); koff/kon; scaffold coupled to chip, Motavizumab as analyte

In order of rising Kd:
1. B2  0.03 nM
2. B4  0.0703 nM
3. B3  0.0941 nM
4. B1  0.47 nM
5. B6  0.652 nM
6. B5  0.795 nM
